From US20180149657A1 (IMMUNOMEDICS, published 2018)

Molecular target: T1, human Trop-2 (human, UniProt P09758 27-323)
T1 construct: whole, on cells; also called EGP-1; epithelial glycoprotein-1
T1 sequence (looked up): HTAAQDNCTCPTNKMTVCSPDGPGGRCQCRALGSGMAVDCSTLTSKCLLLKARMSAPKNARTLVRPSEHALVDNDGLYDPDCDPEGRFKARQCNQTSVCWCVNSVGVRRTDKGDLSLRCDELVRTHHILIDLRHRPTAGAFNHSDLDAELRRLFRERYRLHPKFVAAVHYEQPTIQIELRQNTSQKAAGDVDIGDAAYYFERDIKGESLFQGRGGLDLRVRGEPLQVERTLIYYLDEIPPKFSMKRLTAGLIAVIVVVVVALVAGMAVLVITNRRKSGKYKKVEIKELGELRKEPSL
Assay: cell binding assay on NCI-N87 cells, anti-mouse-HRP secondary, luminescence

Kd: 0.57 nM
B1: murine RS7 (antibody, V domains shown)
VH: VKLQESGPELKKPGETVKISCKASGYTFTNYGMNWVKQAPGKGLKWMGWINTYTGEPTYTDDFKGRFAFSLETSATTAYLQINNLKSEDMATYFCARGGFGSSYWYFDVWGQGTTVTVSS
VL: DIQLTQSHKFMSTSVGDRVSITCKASQDVSIAVAWYQQKPGQSPKLLIYSASYRYTGVPDRFTGSGSGTDFTFTISSVQAEDLAVYYCQQHYITPLTFGAGTKLELK
